Assay [1] concerns the target recombinant Hepatitis B virus surface antigen (HBsAg) (Hepatitis B virus). Briefly: ELISA; scFv without HBsAg in solution, molar ratio fragment:antigen 1:0 (reference).
Assay [2] shares this target. The assay is described as follows: immunoaffinity column, scFv on Sepharose CL-4B; Expt. 2, pure HBsAg, 2 mg loaded.
The target is the same in assay [3]. Briefly: ELISA; scFv preincubated with HBsAg in solution, molar ratio fragment:antigen 1:0.7; inhibition of binding to coated HBsAg.
Assay [4] has the same target. Briefly: immunoaffinity column, scFv on Sepharose CL-4B; Expt. 5, crude semipurified HBsAg, 2 mg loaded.
Assay [5] shares this target. The assay is described as follows: immunoaffinity column, scFv on Sepharose CL-4B; Expt. 4, crude semipurified HBsAg, 2 mg loaded.
For assay [6] the target is unchanged. The assay is described as follows: immunoaffinity column, scFv on Sepharose CL-4B; Expt. 3, pure HBsAg, 2 mg loaded.
Assay [7] shares this target. Briefly: ELISA; scFv preincubated with HBsAg in solution, molar ratio fragment:antigen 1:3.5; inhibition of binding to coated HBsAg.
The target is the same in assay [8]. The assay is described as follows: scFv on Sepharose CL-4B; saturating pure HBsAg applied, eluted with 3 M KSCN (gel without ligand: 0.012 mg).
Assay [9] has the same target. Briefly: ELISA on coated recombinant HBsAg.
Assay [10] has the same target. Briefly: immunoaffinity column, scFv on Sepharose CL-4B; Expt. 1, pure HBsAg, 2 mg loaded.
Assay [11] has the same target. The assay is described as follows: ELISA; scFv preincubated with HBsAg in solution, molar ratio fragment:antigen 1:0.14; inhibition of binding to coated HBsAg.
Assay [12] shares this target. The assay is described as follows: immunoaffinity column, scFv on Sepharose CL-4B; Expt. 6, crude semipurified HBsAg, 2 mg loaded.
The target is the same in assay [13]. The assay is described as follows: ELISA, plates coated with recombinant HBsAg 5 ug/ml; renatured scFv, not purified; detected with rabbit anti-Fab and Protein A-HRP.
Assay [14] has the same target. Briefly: ELISA, plates coated with recombinant HBsAg 5 ug/ml; renatured and IMAC-purified scFv; detected with rabbit anti-Fab and Protein A-HRP.

As for “anti-HBsAg scFv (recombinant single chain Fv antibody fragment, VH-linker-VL, from MAb CB-Hep.1, expressed in E. coli from pPACIB.1/scFv anti HBsAg)”, the % inhibition came out at 0% in assay [1], 76.4% in assay [3], 95.1% in assay [7] and 12.8% in assay [11]. Also, the mg HBsAg eluted/ml gel (mg HBsAg eluted/ml gel) stood at 0.34 in assay [2]; 0.26 in [4]; 0.45 in assay [5]; 0.51 in [6]; 0.54 in assay [10]; 0.42 in [12]. The Amount of eluted HBsAg in assay [8] is 0.126 mg. The optimal binding concentration (saturation) in [9] amounted to 37 µg/mL. Further, the Absorbance at 492 nm (absorbance at 492 nm) in [13] was 1.54; in assay [14] it was 0.68.

The values above are taken from WO1995033832A1.
